Measurements from the nanobody polyreactivity screen of Harvey et al. (2022).

Assay: yeast display, Sf9 membrane polyspecificity reagent, FACS + sequencing; frameworks hold sequencing errors
In short: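 A nanobody's polyreactivity label depends on the gate it was sorted from. Yeast display cells were stained with 10% biotinylated, detergent-solubilized Sf9 membrane reagent for 1 hour at 4 °C, enriched on streptavidin microbeads and sorted by FACS. The low and high (top ~1%) gates were set on anti-HA fluorescence for expression and streptavidin fluorescence for reagent binding.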

Sequence | polyreactivity (PSR sort gate)
QVQLVESGGGLVQAGGILRLSCAASGLIFKYNAMGWYRQAPGKERELVAAISTSGGSTYYADSVKGRFTISRDNAKNTVYLQMNSLKPEDTAVYYCNVAYIKTRLFRPYDYWGQGTQVTVSS | high polyreactivity
QVQLVESGGGLVQAGGILRLSCAASGLTFAKYAMGWYRQAPGKERELVAAITKSSGSTYYADSVKGRFTISRDNAKNTVYFQMNSLKPEDTAVYYCAAGIYAFRRHREEYHYWGQGTQVTVSS | high polyreactivity
QVQLVESGGGLVQAGGILRLSCAASGLTFYYYSMGWYRQAPGKERELVAAINSSGGITFYADSVKGRFTISRDNAKNTVYLQMNSLKPEDTAVYYCAAGGRSKRYGYWGQGTQVTVSS | low polyreactivity
QVQLVESGGGLVQAGGILRLSCAASGNAMGWYRQAPGKERELVATINRSGGRTYYADSVKGRFTISRDNAKNTVYLQMNSLKPEDTAVYYCATEGRWPNASYGDYDYWGQGTQVSVSS | low polyreactivity
QVQLVESGGGLVQAGGILRLSCAASGNIFDRYAMGWYSQAPGKERELVAGMTWSGGSTYYADSVKWRFTISRDNAKNTVYLQMNSLKPEDTAVYYCGQANYYWGQGTQVTVSS | low polyreactivity
QVQLVESGGGLVQAGGILRLSCAASGRIFRYNAMGWSRQAPGKERELVAAISSSGSSTYYADSVKGRFTISRDNAKNTVYLQMNSLKPADTAVYYCNARIPSRYYYQYDYWGQGTQVTVSS | high polyreactivity
QVQLVESGGGLVQAGGILRLSCAASGRIFSRYVMGWYRQAPGKEREFVASITWSGSSTYYADSVKGRFTISRDNAKNTVYLQMNSLKPEDTAVYYCAALGLLSPSPWGTHISEYDSWGQGTQVTVSS | low polyreactivity
QVQLVESGGGLVQAGGILRLSCAASGRNFVHYAMGWYRQAPGKERELVAAISHSGGRTYYADSVKGRFTMSRDYAQNTVYLQMNSLKPEDTAVYYCNVRGSPAGTGLLDYWGQGTQVTVSS | high polyreactivity
QVQLVESGGGLVQAGGILRLSCAASGRTFKYYAMGWYRQAPGKERELVATITWSGTSTNFADSVKGRFTISRDNAKNTVYLQMNSLKPEDTAVYYCAARSKRRNYDYWGQGTQVTVSS | high polyreactivity
QVQLVESGGGLVQAGGILRLSCAASGRTFNSNAMGWYRQAPGKERELVAAITGGGGRTYYADSVKGRFTISRDNAKNTVYLQMNSVKPEDTAVYYCYAARWYRGYDYWGQVTQVTVSS | high polyreactivity
QVQLVESGGGLVQAGGILRLSCAASGRTFQGNAMGWSRQAPGKERELVAVIDSGTSTDYADSVKGRFTISRDNAKNTVYLQMNSLKPEDTAVYYCAADGALGYNLRYDYWGQGTQVTVSS | low polyreactivity
QVQLVESGGGLVQAGGILRLSCAASGRTFSWNAMGWYRQAPGKERELVAAISNSGGSTYYADSVKGRFTISRDNAKNTVFLQMNSLKPEDTAVYYCAVYRYYGFSLWYDYWGQGTQVTVSS | low polyreactivity
QVQLVESGGGLVQAGGILRLSCAASGSIFDVYAMGWYRQAPGKERELVAAINRGGSTNYADSVKGRFTISRDNAKNTVYLQMNCLKPEDTAVYYCAADIVWYVYNGYYWIFDYWGQGTQVTVSS | high polyreactivity
QVQLVESGGGLVQAGGILRLSCAASGSIFEWYAMGWYRQAPGKEREFVAAINSGGSTYYADSVKGRFTISRDNAKNTVYLQMNSLKPEDTAVYYCNKVSYGYSTYGYWGQGTQVTVSS | low polyreactivity
QVQLVESGGGLVQAGGILRLSCAASGSIFNGYAMGWYRQSPGKERELVAAISWNGGSTYYADSVKGRFTISRDNAKNTFYLLMNSLKPEDTAVYYFAAGGYYDSRTYYYWGQGTQVSVSS | high polyreactivity
QVQLVESGGGLVQAGGILRLSCAASGSIFPFNAMGWYRQAPGKERDLVAAITRSGGSTYYADSVKGRFTISRDNAKNTVYLQMNSLKPEDTSVYYCATDPEWPLPAYYYWGQGTQVTVSS | low polyreactivity

Sequence | polyreactivity (PSR sort gate)
QVQLVESGGGLVQAGGILRLSCAASGSIFRQYARGWYRQAPGKERAFVAAITRRGGSTRYADSVKGRFTISRDNAKNTVYLQMNSLKPEDSAVEYCAARGVPGLHRYYYWGQGTQVTVSS | high polyreactivity
QVQLVESGGGLVQAGGILRLSCAASGSIFSQYAMGWYRQAPGKERELVATISWNGGRTYYADSVKGRFTISRDNAKNTVYLELNSLKPEDTAVYYCAARYGGVPYYYWGQGTQVTVSS | high polyreactivity
QVQLVESGGGLVQAGGILRLSCAASGSIFYWSTMGWYIQAPGKERELVAAISSIDGNTYYADSVKGRFTISRDNAKNTVYLQMNSLKPEDTAVYYCAAAYYNTDYYYWGQGTQVTVSS | low polyreactivity
QVQLVESGGGLVQAGGILRLSCAASGSTFAANAMGWYRQAPGKERELVAAITSSGGSTYYADSVKGRFTISRDNAKNTVYLQMNSLKPEDTAVYYCNKDIERYVRIYYSWGQGTQVTVSS | low polyreactivity
QVQLVESGGGLVQAGGILRLSCAASGSTFAQNAMGWYRQAPGKEREFVAAITGTVGSTYYADSVKGRFTISRDNAKNTVYLQMNSLKPEDTAVFYCNTRGFNGRVYPYDYWGQGTQVTVSS | low polyreactivity
QVQLVESGGGLVQAGGILRLSCAASGSTFDINTMGWYRQAPGKEREFVAAITDSDDSTYYADSVKGRFTISRDHAKNTVYLLMNSLKPEDTAVDYCNYDYWGQGTQVTVAS | low polyreactivity
QVQLVESGGGLVQAGGILRLSCAASGSTFPFYAMGWYRQAPGKVRELVASINSDGSTNYADSVKGRFTISRDNAKNTVYLQMNSLKPEDTAVYYCAAGWQTRFYSRYYYWGQGTQVTVSS | high polyreactivity
QVQLVESGGGLVQAGGILRLSCAASGSTFYENAMGWYRQAPGKERELVAAITWSGGRTYYADSVKGRFTISRDNAKNTVYLQMNSLKPEDTAVYYCNARARSRKFYYWGQVTQVTVSS | high polyreactivity
QVQLVESGGGLVQAGGILRLSCAASGYIFGPNAMGCYRQAPGKERELVAGITWSTGNTYYAVSVKGRFTISRDNAKNTVYLHMNSLKPEDTAVYYCAADFYVAYEGVQPYWMDYWGQGTQVNVSS | low polyreactivity
QVQLVESGGGLVQAGGILRLSCAAYGSISYGYGMGWYRQPPGKERELVATLSGRAGSTYYADSVKGRFTISRDNAKYTVYLQMNSLKPEDTAVYYCAAKWWRLTWTAGYGGRCYGYWGQGSQVTVSS | low polyreactivity
QVQLVESGGGLVQAGGILRLSCADSGRTFWYYAMGWYRQAHGKERELVAAITRGGRTNYADSVKGRFTISRDNAKNTVYLQMNSLKPEDTAVYYCAADYRYPAHSYGYWGQGTQVTVSS | high polyreactivity
QVQLVESGGGLVQAGGILRLSCADSGSTFIGYAMGWYRQAPRKERELFAAISKSGGSTYYADSVKGRFTISRDNAKNTVYLQMNSLKPEDTAVYYCIVDTSRYVSWNDYWGQGTQVTVSS | high polyreactivity
QVQLVESGGGLVQAGGILRLSCASSGRTFAWYAMGWYRPAPGKERELVAAITTRGSGTYYADSVKGRFTISRDNAKNTVYLQMNSLKPEDTAVYYGAKDPITATTLDERVYYWGQGTQLTVSS | low polyreactivity
QVQLVESGGGLVQAGGILRLSCASSGSTFGYNVMGWYRQAPGKERELVAAISSSGGSTYYADSVKGRFTISRDTAKNTVYLQMNSLNPEDTAVYYGAADVGFRWYRYTAGPLEYDYWGQGTQVTVSS | high polyreactivity
QVQLVESGGGLVQAGGILRLSCPASGIIFDGNVMGWYRQAPGKEREFVASISISGGSTSYADSVKGRFTISRDNAKNTVYLQMNSLKPEDTAVYYCNTDVGYGRVWRWRYHGDYWGQGTQVTVSS | low polyreactivity
QVQLVESGGGLVQAGGNLRLICDASGSIFLYNTMGWYRHAPGQERELVAAITYSGGSTYYADSVKGRFTISRDNAKNTVYLQMNSLNPEDTAVYYCNARHYSAFYSWGQGTQVTVSS | high polyreactivity
